Measured values from paper PMC10329019, “Membrane translocation process revealed by in situ structures of type II secretion system secretins” (Nature Communications, 2023).

Legend:
[1] = target: the molecule itself; assay: cryo-EM structure; in situ cryo-ET subtomogram averaging of particles on the outer membrane of E. coli minicells overexpressing GspDβ and GspS; 514 particles, C15 symmetry, 19 Å; C5 refinement as a test of symmetry
[2] = target: the molecule itself; assay: cryo-EM structure; in situ cryo-ET subtomogram averaging of particles on the outer membrane of E. coli minicells overexpressing only GspDβ; 723 particles, C15 symmetry, 16 Å; C5 refinement as a test of symmetry
[3] = target: the molecule itself; assay: cryo-EM structure; in situ cryo-ET subtomogram averaging of GspDα particles on the inner membrane of E. coli BL21 (DE3) minicells; about 32,000 particles, C15 symmetry, 9 Å; particle radius histogram

B1: GspDβ secretin (ETEC H10407 strain) with hexahistidine tag, from pETDuet-gspDβ-his-gspS, co-expressed with GspS (natural protein, UniProt E3PJ86 41-686, looked up)
chain: EEATFTANFKDTDLKSFIETVGANLNKTIIMGPGVQGKVSIRTMTPLNERQYYQLFLNLLEAQGYAVVPMENDVLKVVKSSAAKVEPLPLVGEGSDNYAGDEMVTKVVPVRNVSVRELAPILRQMIDSAGSGNVVNYDPSNVIMLTGRASVVERLTEVIQRVDHAGNRTEEVIPLDNASASEIARVLESLTKNSGENQPATLKSQIVADERTNSVIVSGDPATRDKMRRLIRRLDSEMERSGNSQVFYLKYSKAEDLVDVLKQVSGTLTAAKEEAEGTVGSGREIVSIAASKHSNALIVTAPQDIMQSLQSVIEQLDIRRAQVHVEALIVEVAEGSNINFGVQWASKDAGLMQFANGTQIPIGTLGAAISQAKPQKGSTVISENGATTINPDTNGDLSTLAQLLSGFSGTAVGVVKGDWMALVQAVKNDSSSNVLSTPSITTLDNQEAFFMVGQDVPVLTGSTVGSNNSNPFNTVERKKVGIMLKVTPQINEGNAVQMVIEQEVSKVEGQTSLDVVFGERKLKTTVLANDGELIVLGGLMDDQAGESVAKVPLLGDIPLIGNLFKSTADKKEKRNLMVFIRPTILRDGMAADGVSQRKYNYMRAEQIYRDEQGLSLMPHTAQPVLPAQNQALPPEVRAFLNAGRTR
notes: GspDβ, Vibrio-type type II secretion system secretin encoded in the T2SSβ operon, ETEC H10407 strain; Probably the same C-terminally tagged chain as m2 (surmised); also called Vibrio-type secretin; copies: 15
Which “stoichiometry N” value [1] does the source give for B1 here?
The value was 15.

B2: GspDβ secretin (ETEC H10407 strain) with C-terminal hexahistidine tag, from pETDuet-gspDβ-his, expressed alone (natural protein, UniProt E3PJ86 41-686, looked up)
chain: EEATFTANFKDTDLKSFIETVGANLNKTIIMGPGVQGKVSIRTMTPLNERQYYQLFLNLLEAQGYAVVPMENDVLKVVKSSAAKVEPLPLVGEGSDNYAGDEMVTKVVPVRNVSVRELAPILRQMIDSAGSGNVVNYDPSNVIMLTGRASVVERLTEVIQRVDHAGNRTEEVIPLDNASASEIARVLESLTKNSGENQPATLKSQIVADERTNSVIVSGDPATRDKMRRLIRRLDSEMERSGNSQVFYLKYSKAEDLVDVLKQVSGTLTAAKEEAEGTVGSGREIVSIAASKHSNALIVTAPQDIMQSLQSVIEQLDIRRAQVHVEALIVEVAEGSNINFGVQWASKDAGLMQFANGTQIPIGTLGAAISQAKPQKGSTVISENGATTINPDTNGDLSTLAQLLSGFSGTAVGVVKGDWMALVQAVKNDSSSNVLSTPSITTLDNQEAFFMVGQDVPVLTGSTVGSNNSNPFNTVERKKVGIMLKVTPQINEGNAVQMVIEQEVSKVEGQTSLDVVFGERKLKTTVLANDGELIVLGGLMDDQAGESVAKVPLLGDIPLIGNLFKSTADKKEKRNLMVFIRPTILRDGMAADGVSQRKYNYMRAEQIYRDEQGLSLMPHTAQPVLPAQNQALPPEVRAFLNAGRTR
notes: GspDβ, Vibrio-type type II secretion system secretin encoded in the T2SSβ operon, ETEC H10407 strain; The results name BL21(DE3) for this experiment, the methods name Rosetta (DE3) for cryo-ET imaging; also called Vibrio-type secretin; source: E. coli Rosetta (DE3) minicells (co-transformed with pBS58), pETDuet-gspDβ-his, overexpressed, imaged in the cells; copies: 15
For B2, which “stoichiometry N” value [2] is on record?
The value was 15.

B3: GspDα secretin (E. coli K12 strain), no tag (natural protein, UniProt P45758 24-650, looked up)
chain: ENEQYGANFNNADIRQFVEIVGQHLGKTILIDPSVQGTISVRSNDTFSQQEYYQFFLSILDLYGYSVITLDNGFLKVVRSANVKTSPGMIADSSRPGVGDELVTRIVPLENVPARDLAPLLRQMMDAGSVGNVVHYEPSNVLILTGRASTINKLIEVIKRVDVIGTEKQQIIHLEYASAEDLAEILNQLISESHGKSQMPALLSAKIVADKRTNSLIISGPEKARQRITSLLKSLDVEESEEGNTRVYYLKYAKATNLVEVLTGVSEKLKDEKGNARKPSSSGAMDNVAITADEQTNSLVITADQSVQEKLATVIARLDIRRAQVLVEAIIVEVQDGNGLNLGVQWANKNVGAQQFTNTGLPIFNAAQGVADYKKNGGITSANPAWDMFSAYNGMAAGFFNGDWGVLLTALASNNKNDILATPSIVTLDNKLASFNVGQDVPVLSGSQTTSGDNVFNTVERKTVGTKLKVTPQVNEGDAVLLEIEQEVSSVDSSSNSTLGPTFNTRTIQNAVLVKTGETVVLGGLLDDFSKEQVSKVPLLGDIPLVGQLFRYTSTERAKRNLMVFIRPTIIRDDDVYRSLSKEKYTRYRQEQQQRIDGKSKALVGSEDLPVLDENTFNSHAPAPSSR
notes: The untagged vector was used for cryo-ET imaging; the His-tagged one only for blots; also called Klebsiella-type secretin; GspDα multimer; copies: 15
For B3, which “stoichiometry N” value [3] is on record?
The value was 15.
